According to US20240360233A1 (University of Texas, published 2024):
Numbering of substitutions follows the chain as printed.

B1: TSLPR antibody clone 2E4 (antibody, V domains shown)
VH: EVQLLESGGGLVQPGGSLRLSCAASGFTFSSYAMNWVRQAPGKGLEWVSGISGSGGSTYYADSVKGRFTFSRDNSKNTLYLQMISLRAEDTAVYYCAKDQRITMVRGVIGAFDIWGQGTMVTVSS
VL: DIQMTQSPSTLSASVGDRVTITCRASQSISSWLAWYQQKPGKAPKLLIYKASSLESGVPSRFSGSGSGTEFTLTISSLQPDDFATYYCQQYVGLITFGQGTRLEIKR
notes: Captured on an anti-human IgG sensor
B2: TSLPR antibody clone 2H1 (antibody, V domains shown)
VH: EVQLLESGGGLVQPGGSLSLSCAASGFTFSRYGMHWVRQAPGKGLEWVSAISASGGSTYYADSVKGRFTISRDNSKNTLYLQMNSLRAEDTAVYYCAKDKWGYAFDIWGQGTTVTVSS
VL: B1 VL with S31N, Q89L, V92N, G93H, L94Y, I95S, R102K, L103V, E104D
notes: as for B1
B3: TSLPR antibody clone 1A10 (antibody, V domains shown)
VH: QVQLQESGPGLVKPSETLSLTCNVSGGSISTYYWNWLRQPPGKGLEWIGSIYYSGTTNYNPSLKSRVTISVDTSKHQFSLRLTSVTAADTAVYFCARDQGYYHGSGSYFFDYWGQGTLVTVSS
VL: EIVMTQSPATLSVSPGERATLSCRASQSVSSHLAWYQQKPGQAPRLLIYGASTRATGIPARFSGSGSGTEFTLTISSLQSEDFAIFYCQQYNNWPLTFGGGTKVDIKR
notes: as for B1
B4: TSLPR antibody clone 1F6 (antibody, V domains shown)
VH: QVQLVQSGAEVRKPGSSVKVSCKASGGTVSSYAISWVRQAPGQGLEWMGGITPIFGTAKYAQKFQGRVTITADKSTSTAYMELSSLRSEDTAVYYCARGGIAAAGTFDYWGQGTLVTVSS
VL: not shown
notes: as for B1
B5: TSLPR antibody clone 2H4 (antibody, V domains shown)
VH: B4 VH with R12K, V29F, S30N, A79T, G99P, A102I, A103V, T106P
VL: not shown
notes: as for B1
B6: TSLPR antibody clone 2D11 (antibody, V domains shown)
VH: QVQLQESGPGLVKPSETLSLTCAVSGYSISSGYYWGWIRQPPGKGLEWIGRIYHSGTTSYNPSLKRRVTISVDTSKNQFSLKLSSVTATDTAVYYCARNWGGNWFDPWGQGTLVTVSS
VL: DIQMTQSPSSLSASVGDRVTITCRASQGISNYLAWYQQKPGKVPKLLIYAASTLQSGVPSRFSGSGSGTDFTLTISSLQPEDVATYYCQKYNSARTFGQGTKVDIKR
notes: as for B1
B7: TSLPR antibody clone 1D10 (antibody, V domains shown)
VH: QVQLQESGPGLVKPSETLSLTCTVSGGSISRYYWSWIRQPPGKGLEWIGYIFYNKNTNYNPSLKSRVTISVDTSKNQFSLKLSSVTAADTAVYYCARYIAAIYTDLYYFDYWGQGTLVTVSS
VL: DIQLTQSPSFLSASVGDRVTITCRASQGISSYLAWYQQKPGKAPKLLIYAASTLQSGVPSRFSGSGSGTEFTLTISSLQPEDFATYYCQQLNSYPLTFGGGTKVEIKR
notes: as for B1
B8: TSLPR antibody clone 2F1 (antibody, V domains shown)
VH: B7 VH
VL: DIQLTQSPSFLSASVGDRVTITCRASQGISSYLAWYQQKPGKAPKLLIYAASTLQSGVPSRFSGSGSGTEFTLTISSLQPEDFATYHCQQLNSYPLTFGGMTKVEIKR
notes: as for B1
B9: TSLPR antibody clone 2A4 (antibody, V domains shown)
VH: QVQLVQSGAEVKKPGASVKVSCKASGYTFTGYYMHWVRQAPGQGLEWMGRFNLHSGVTNYAQKFQGRVTMTRDTSISTVYMDLSRLRSDDTAVYYCARERQWLVQDYFDYWGQGTLVTVSS
VL: DIQMTQSPSSLSASVGDRVTITCRASQSISNYLNWYQQKPGKAPNLLICAASSLQSGVPSRFSGSGSGTDFTLTISSLQPEDFATYYCQQSYSIPPTFGQGTKVDIKR
notes: as for B1
B10: TSLPR antibody clone 1G3 (antibody, V domains shown)
VH: QVQLVESGGGVVQPGRSLRLSCAASGFTFSSYGMHWVRQTPGKGLEWVAVMWYDGRNKYYADSVKGRFTISRDNSKNTLYLQMNSLRAEDTAVYYCARDRIMVRGVIIPHVFDIWGQGTMVTVSS
VL: EIVMTQSPATLSVSPGERATLSCRASQSVSSNLGWYQQKPGQAPRLLIYGASTRATGIPARFSGSGSGTEFILTISSLQSEDFAVYYCQEYNNWWTFGQGTKVDIKR
notes: as for B1
B11: TSLPR antibody clone 3E5 (antibody, V domains shown)
VH: EVQLLESGGGLVQPGGSLRLSCAASGFTFSSNAMSWVRQAPGKGLEWVSAIRGRGGSTYYADSVKGRFTISRDNSKNTLYLQLNSLRAEDTAVYYCAKDRIVVAGPFDHWGQGTLVTVSS
VL: B8 VL with H87Y, S93R, M101G, E105D
notes: as for B1
B12: TSLPR antibody clone 3D8 (antibody, V domains shown)
VH: QVQLVESGGGVVQPGRSLRLSCAASGFTFSSYVMHWVRQAPGKGLEWVAVIWYAGNKKYYADSVKGRFTISRDNSNNTLYLQMNSLRAEDTAVYYCAREYSSSWHYYGMDVWGQGTTVTVSS
VL: B8 VL with H87Y, M101G, E105D
notes: as for B1
B13: TSLPR antibody clone 1B9 (antibody, V domains shown)
VH: QVQLQESGPGLVKPSGTLSLTCAVSGGSIRSSNWWSWVRQPPGKGLEWIGEIYHGGTTNNNPSLKSRVTISVDQSKSQFSLKLSSVTAADTAVYYCARHRYSSGLDYWGQGTLVTVSS
VL: DIQMTQTPSTLSASVGDRVTITCRGSHSISNWLGWYRHKPRKAPNLLIYKASSLKSGVPSRFSGSGSGTEFTLTITSLQPDDFATYYCQQYNHYSTFGQGTKVDIKR
notes: as for B1
B14: TSLPR antibody clone 2B2 (antibody, V domains shown)
VH: QVQLVESGGGVVQPGRSLRLSCAASGFTFSNYGMHWVRQAPGKGLEWVSFIWYDGSHRYYADSVKGRFTISRDNSKNTLYLQMNSLRAEDTAVYYCAKGRGGLDWYFDLWGRGTLVTVSS
VL: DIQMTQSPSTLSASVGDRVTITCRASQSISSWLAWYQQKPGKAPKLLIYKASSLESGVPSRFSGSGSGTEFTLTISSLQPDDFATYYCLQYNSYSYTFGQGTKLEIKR
notes: as for B1
B15: TSLPR antibody clone 2H8 (antibody, V domains shown)
VH: EVQLLESGGGLEQPGGSLRLSCAASGFTFSSHAMNWVRQAPGKGLEWVSAISGSGGSTYYADSVKGRFTISRDNSKNTLCLQMNSLRAEDTAVYYCARGHNSGWPYWGQGTLVTVSS
VL: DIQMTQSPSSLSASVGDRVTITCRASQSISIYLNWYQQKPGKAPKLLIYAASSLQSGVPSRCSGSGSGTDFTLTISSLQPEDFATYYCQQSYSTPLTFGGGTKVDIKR
notes: as for B1
B16: TSLPR antibody clone 10C4 (antibody, V domains shown)
VH: QVQLQESGPGLVKPSGTLSLTCAVSGGSINSNNWWSWVRQPPGKGLEWIGDIYHSGSTNYNPSLKSRVTISVDKSKSQFSLKLSSVTAADTAVYYCARRRWLQHFDFWGQGTLVTVSS
VL: DIQMTQSPSTLSASVGDRVTITCRASQSITNWLAWYQQKPGKAPKLLIYKASSLESGVPSRFSGSGSGTEFTLAISSLQPDDFATYYCQQYNIYPLAFGGGTKVEIKR
notes: as for B1

Assays:
[1] = biological target: T1, his-tagged TSLPR (TSLPR-HIS) (UniProt Q9HC73 23-231, limits assumed); test: BLI (ForteBio AHQ sensor), antibody captured, TSLPR-HIS in solution
T1 construct: Soluble protein used in the ForteBio assay; not shown: His tag
T1 sequence (looked up): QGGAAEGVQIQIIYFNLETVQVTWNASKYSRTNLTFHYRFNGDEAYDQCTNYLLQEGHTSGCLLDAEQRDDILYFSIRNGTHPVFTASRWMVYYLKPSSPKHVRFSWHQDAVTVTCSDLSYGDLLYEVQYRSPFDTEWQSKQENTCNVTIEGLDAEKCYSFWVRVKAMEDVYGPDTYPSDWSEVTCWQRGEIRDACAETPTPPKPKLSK
Method: (§1) TSLPR antibody clones whose VH and VL sequences are disclosed in Tables 9 and 10 were bound to the AHQ sensor and his-tagged TSLPR (TSLPR-HIS) was provided in solution. […] The anti-TSLPR antibodies were serially diluted with an HBS-EP solution (GE Healthcare), and 100 μL of the solution was added to the flow path at a flow rate of […].

[2] = biological target: T1, his-tagged TSLPR (TSLPR-HIS); test: BLI (ForteBio AHQ sensor), antibody captured, TSLPR-HIS and TSLP in solution; competitor TSLP
Method: as §1

Binder | Kd [1] | koff [1] | kon [1] | TSLPR-TSLP Response [2]
B1 | 1.01 nM | 0.000294 s⁻¹ | 292000 M⁻¹ s⁻¹ | 
B2 |  |  |  | 80%
B3 | 8.9 nM | 0.00119 s⁻¹ | 133000 M⁻¹ s⁻¹ | 
B4 | 3.9 nM | 0.00137 s⁻¹ | 351000 M⁻¹ s⁻¹ | 
B5 | 5.91 nM | 0.0015 s⁻¹ | 254000 M⁻¹ s⁻¹ | 32.2%
B6 | 5.29 nM | 0.000881 s⁻¹ | 167000 M⁻¹ s⁻¹ | 83.2%
B7 | < 0.001 nM | < 1e-07 s⁻¹ | 16200 M⁻¹ s⁻¹ | 
B8 | 4.33 nM | 0.000332 s⁻¹ | 76800 M⁻¹ s⁻¹ | 204%
B9 | 3.07 nM | 0.000326 s⁻¹ | 106000 M⁻¹ s⁻¹ | -3.7%
B10 | 11.7 nM | 0.0021 s⁻¹ | 179000 M⁻¹ s⁻¹ | 
B11 | 6.81 nM | 0.00139 s⁻¹ | 204000 M⁻¹ s⁻¹ | 
B12 | 1.16 nM | 0.000134 s⁻¹ | 116000 M⁻¹ s⁻¹ | 
B13 | 2.33 nM | 0.00127 s⁻¹ | 545000 M⁻¹ s⁻¹ | 
B14 | 8.07 nM | 0.00324 s⁻¹ | 401000 M⁻¹ s⁻¹ | 21.2%
B15 | 0.806 nM | 0.000191 s⁻¹ | 237000 M⁻¹ s⁻¹ | 
B16 | 4.86 nM | 0.000334 s⁻¹ | 68800 M⁻¹ s⁻¹ | 
